This note sets out measurements from patent US20200157146A1.

This assay deals with HLA-A2 (human). As to the kind of experiment: T2 cells without peptide stained with MA2.1 mAb, flow cytometry (baseline of the stabilization assay).

Substance MA2.1 mAb (antibody) came in with a mean channel fluorescence of 90.
